Reference: patent publication US11235004B2, “Lymphocyte cell lines and uses thereof” (Innovative Cellular Therapeutics Holdings, Ltd., priority 2017, dated 2022)

Tests used:
CAR T-TSHR cells = assay: Culture of CAR T-TSHR cells with soluble TSHR ECD; assay type: cell-based, human
Description: Primary T cells were transduced with lentiviral vectors encoding a TSHR CAR to obtain modified T cells including CAR T cells expressing anti-TSHR (thereafter “CAR T-TSHR cells”). The modified T cells were frozen and stored for 30 days. Techniques related to freezing T cells and thawing frozen T cells may be found in Levine et al., Molecular Therapy—Methods & Clinical Development, Molecular Therapy, Vol 4, Mar. 17, 2017.
The modified Tcells were thawed and divided into two groups and cultured, respectively. CAR T-TSHR cells in Group 1 were cultured with anti-CD3 & CD28 beads and IL2 for 10 days, while CAR T-TSHR cells in Group 2 were cultured with various concentrations of soluble TSHR (e.g., extracellular domain of TSHR, SEQ ID: 34), anti-CD3 & CD28 beads and IL2. For Group 2, 500,000 CAR T-TSHR cells were cultured with 10, 125, 500 ng/ml of soluble TSHR ECD for 14 days. The T cell population was observed by flow cytometry (FIGS. 8 and 9), and cellular morphology of the T cell population was observed under microscopes (FIG. 10).

[1] = system: transduced T cells (ef1a-TK-IRES-rtTA-TRE-hTERT) and non-transduced T cells; assay: Ganciclovir (TK suicide switch) cell growth test; assay type: cell-based, human; details: in the presence of GCV
Experimental: Experimental cells: CD8+CZY-1 SDS-T and NT cell; TK usage: Adult body concentration of 71.45 ng/ml/5000 ng/kg every 24 h injection. In vitro experimental concentration gradients: 357.2 ng/ml, 142.9 ng/ml, 71.45 ng/ml, 35.725 ng/ml, 14.28 ng/ml, 3.6 ng/ml. […] The starting cells were cultured in 200 w cell density of 50 w/ml.
In group three, transduced cells (ef1a-TK-IRES-rtTA-TRE-hTERT) were cultured using media containing Dox (2 μg/ml) and CD19 ECD (1 mg/250,000 CAR T cells). On day 90, various concentrations of GCV was added to the transduced cells. […] DTT cells represent transduced T cells and grew poorly in the presence of GCV.

CAR T19 cells = assay: Culture of CAR T19 cells with or without soluble CD19 ECD; assay type: cell-based, human
Experimental: The primary T cells were transduced with lentiviral vectors encoding a CD19 CAR to obtain modified T cells including CAR T cells expressing anti-CD19 (thereafter “CAR T19 cells”) on day 1. The modified T cells were divided into two groups and cultured, respectively. CAR T19 cells in Group 1 were cultured with anti-CD3 & CD28 beads and IL2, while CAR T19 cells in Group 2 were cultured with soluble CD19 (e.g., extracellular domain (ECD) of CD19, SEQ ID: 41), anti-CD3 & CD28 beads and IL2. For Group 2, 500,000 CAR T19 cells were cultured with 2 micrograms of soluble CD19 at the starting point, and 4 micrograms of soluble CD19 were used after the CAR T19 cells were grown. The numbers of cells were measured, and ratios between CAR+ cells and the modified T cell population were observed by flow cytometry. The number of CAR copies in the cell population was measured.
T cell phenotypes were further observed. […] Memory cell marker CD62L on CAR+ and CAR-cells were analyzed to determine phenotypes of cultured T cell population.
CAR T19 cells were cultured with CD19 for over 15 days and then were divided into Group 3 and Group 4. CAR T19 cells in Group 3 were continuously cultured with soluble CD19, while CAR T19 cells in Group 4 were cultured without CD19.

K562-CD19 = assay: IFN-gamma release of CAR T19 cells co-cultured with K562-CD19; assay type: cell-based; details: after 24 hours; Group 2 (pre-cultured with CD19) vs Group 1; E:T 1:1 or 1:10
Experimental: CAR T19 cells of Group 1 and Group 2 were cultured for about one to three weeks using the protocols described above, respectively. CAR T19 cells were then washed and placed into cultures without CD19. These CAR T19 cells were co-cultured with K562-CD19 (E:T 1:1 or 1:10). After 24 hours, 48 hours, and 72 hours, supernatant of the cultures were collected, and IFN-gamma released by the cells were measured to determine functions of CAR T19 cells.

CAR T cells = assay: Long-term culture of CAR T cells (groups A-D) with CD19 antigen, flow cytometry; assay type: cell-based, human
Description: Various CARs (A, B, C, and D) were constructed by linking a signal peptide (SEQ ID NO: 38), antigen-specific single-chain variable fragment (scFv) (SEQ ID NO: 55 or 21), hinge domain (SEQ ID NOs: 68, 69, 70, or 71), a transmembrane domain (SEQ ID NO: 72, 73, 74, or 75), one or more co-stimulation domains (SEQ ID NO: 3), CD3-ζ (SEQ ID NO: 40), and EGFP, respectively (See FIGS. 12 and 13).
Primary T cells were obtained from the peripheral blood of volunteers. The magnetic beads negative selection was performed using Pan-T kit from Miltenyi Biotec, Inc. to collect T cells from the peripheral blood. On the second day after primary T cell isolation, the collected T cells were infected with lentivirus containing A, B, C, and D CARs, respectively (i.e., Lenti-CARs-IRES-EGFP) to prepare CAR T cells.
On the 14th day after infection, 15,000 CAR T cells of each group were collected, and cultured with 1000 ng/ml CD 19 antigen (i.e., recombinant human CD19 protein. After 15 days of stimulation, the concentration of CD19 was changed to 400 ng/ml. After 20 days of stimulation, the concentration of CD19 was changed to 200 ng/ml and maintained until about 130 days.
The expression of CARs and cell morphology were observed using flow cytometry on day-2, day 15 (FIGS. 14-17), day 17 (FIG. 20), day 65 and day 130 at the beginning of the stimulus. […]

[2] = Survival and growth of various CAR T cells in vitro (FIG. 43); assay type: cell-based, human; details: medium containing CD19 ECD vs no CD19 ECD
Description: In Group 1 (hTert CD19 CAR), the primary T cells obtained from a healthy donor were transduced with a nucleic acid sequence encoding a CD19 CAR and a nucleic acid sequence encoding hTERT. In Group 2 (CD19 CAR), the primary T cells were transduced with the nucleic acid sequence encoding a CD19 CAR. […] CAR T cells are not comprising the nucleic acid sequence encoding hTERT begun to die after about 20 days after cells were transduced with the nucleic acid sequence encoding CAR.

[3] = system: anti-CD19 CAR proliferable T cells; assay: Culture of anti-CD19 CAR proliferable T cells with CD19 ECD; assay type: cell-based, human; details: CD19 ECD added to media (1 mg/250,000 CAR T cells)
Description: The primary T cells obtained from a healthy donor were transduced with lentiviral vectors encoding a CD19 CAR (SEQ ID NO: 21) and lentiviral vectors including sequence 1 or 6 as illustrated in FIG. 1 (ef1a-TK-IRES-rtTA-TRE-hTERT: SEQ ID NOs: 1, 2, 3, 4, 5, and 6 in the 5′ to 3′ order or ef1a-rtTA-TRE-hTERT: SEQ ID Nos: 1, 4, 5, and 6 in the 5′ to 3′ order) to obtain transduced T cells including immortalized T cells expressing anti-CD19 CAR (thereafter “anti-CD19 CAR proliferable T cells”) on day one. The anti-CD19 CAR proliferable T cells were divided into various groups and cultured in different media: in the presence of various concentrations of doxycycline (Dox), CD19 extracellular domain (ECD), and/or Ganciclovir (GCV)). In some groups, CD19 ECD (SEQ ID NO: 22) was added to media (1 mg/250,000 CAR T cells), and percentages of cells expressing CD19 CAR increased.

With “TSHR ECD: soluble TSHR, extracellular domain of TSHR, SEQ ID: 34” the “ratio (P1) of CAR+ cells and the CAR T-TSHR cells” value (CAR T-TSHR cells; 500 ng/ml soluble TSHR ECD) was “significantly increased”, the cell debris (CAR T-TSHR cells; as the proportion of added antigen (TSHR-ECD) increased) was “decreased” and the “MFI value (CAR fluorescence)” value (CAR T-TSHR cells; under 500 ng antigen stimulation) was “increased”. The “SSC-A dispersible FSC low population” value (CAR T-TSHR cells; with increasing concentrations of TSHR ECD (10, 125, 500 ng/ml)) was “decreased”.

For `Nc1nc(O)c2ncn(COC(CO)CO)c2n1` [GCV, Ganciclovir], the “growth of DTT cells (transduced T cells)” value [1] was “grew poorly” and the “growth of NT (non-transduced T cells)” value [1] was “continued to grow”.

B1: CD19 ECD: soluble CD19, extracellular domain (ECD) of CD19, SEQ ID: 41 / SEQ ID NO: 22; recombinant human CD19 protein (protein)
chain: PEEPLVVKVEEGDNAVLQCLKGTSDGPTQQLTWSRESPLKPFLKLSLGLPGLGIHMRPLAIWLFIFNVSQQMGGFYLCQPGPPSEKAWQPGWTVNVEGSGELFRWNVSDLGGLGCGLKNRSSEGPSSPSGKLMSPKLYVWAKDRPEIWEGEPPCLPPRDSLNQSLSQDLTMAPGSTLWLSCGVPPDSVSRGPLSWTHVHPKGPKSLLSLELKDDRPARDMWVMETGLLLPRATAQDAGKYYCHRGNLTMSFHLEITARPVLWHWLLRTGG
For B1, the “cells showing the phenotype of memory cells (CD62L hi)” value (CAR T19 cells; CAR T19 cells of Group 2 (cultured with CD19), day 30) was “entire or majority cells”, the “cell expansion during the early stage” value (CAR T19 cells; CD19 ECD added to media vs culturing without CD19 ECD, about day 3 to day 10, non-transduced T cells and CD19 CAR T cells) was “no apparent increases” and the “ratio of CAR T19 cells and T cells (flow cytometry)” value (CAR T19 cells; Group 2 (soluble CD19) vs Group 1) was “higher”. The “copy numbers of CAR T19 cells (qPCR)” value (CAR T19 cells; Group 2 (soluble CD19) vs Group 1 (no CD19)) was “higher”, the “ratio of CAR T19 cells and T cells” value (CAR T19 cells; Group 2, day 30 after the starting point) was “continued to rise” and the “numbers of CAR+ cells” value (CAR T19 cells; Group 4 (CD19 removed after over 15 days) vs Group 3 (continued soluble CD19), Day 27) was “relatively lower”. The “cell expansion rates of CD19 CAR T cells after the early stage” value (CAR T19 cells; vs cells cultured without the CD19 ECD, after about day 10) was “increased at a higher rate”, the IFN-gamma released (K562-CD19) was “significantly higher” and the “percentage of CD4 cells” value (CAR T cells; CD19-stimulated cells vs parallel untreated) was “increased”. For the same molecule, the “proportion of CAR+EGFP+ cells” value (CAR T cells; after CD19 stimulation) was “increase”, the “cell growth rates of hTERT CAR T cells” value [2] was “higher cell growth rates” and the “percentages of cells expressing CD19 CAR” value [3] was “increased”.
